Key:
[1] = molecular target: FcRn, FCGRT & B2M dimer receptor (Sino Biological Inc.); assay: SPR, FcRn on CM5 chip, 12.5 nM analyte, RU 2 s before end of pH 6.0 injection
[2] = molecular target: FcRn, FCGRT & B2M dimer receptor (Sino Biological Inc.); assay: SPR, FcRn on CM5 chip, 100 nM analyte, RU 10 s after start of dissociation at pH 7.4
[3] = molecular target: FcRn, FCGRT & B2M dimer receptor (Sino Biological Inc.); assay: SPR, 100 nM analyte, (RU at pH 7.4 / RU at pH 6.0) x 100
[4] = molecular target: FcRn, FCGRT & B2M dimer receptor (Sino Biological Inc.); assay: SPR, 25 nM analyte, (RU at pH 7.4 / RU at pH 6.0) x 100
[5] = molecular target: FcRn, FCGRT & B2M dimer receptor (Sino Biological Inc.); assay: SPR, FcRn on CM5 chip, 12.5 nM analyte, RU 10 s after start of dissociation at pH 7.4
[6] = molecular target: FcRn, FCGRT & B2M dimer receptor (Sino Biological Inc.); assay: SPR, mean over 100-12.5 nM analyte, (RU at pH 7.4 / RU at pH 6.0) x 100
[7] = molecular target: FcRn, FCGRT & B2M dimer receptor (Sino Biological Inc.); assay: SPR (BIACORE 3000), FcRn on CM5 chip, pH 6.0, 1:1 Langmuir with drifting baseline
[8] = molecular target: FcRn, FCGRT & B2M dimer receptor (Sino Biological Inc.); assay: SPR, FcRn on CM5 chip, 50 nM analyte, RU 2 s before end of pH 6.0 injection
[9] = molecular target: FcRn, FCGRT & B2M dimer receptor (Sino Biological Inc.); assay: SPR, FcRn on CM5 chip, 50 nM analyte, RU 10 s after start of dissociation at pH 7.4
[10] = molecular target: FcRn, FCGRT & B2M dimer receptor (Sino Biological Inc.); assay: SPR, 12.5 nM analyte, (RU at pH 7.4 / RU at pH 6.0) x 100
[11] = molecular target: FcRn, FCGRT & B2M dimer receptor (Sino Biological Inc.); assay: SPR, FcRn on CM5 chip, 25 nM analyte, RU 2 s before end of pH 6.0 injection
[12] = molecular target: FcRn, FCGRT & B2M dimer receptor (Sino Biological Inc.); assay: SPR, FcRn on CM5 chip, 100 nM analyte, RU 2 s before end of pH 6.0 injection
[13] = molecular target: FcRn, FCGRT & B2M dimer receptor (Sino Biological Inc.); assay: SPR, FcRn on CM5 chip, 25 nM analyte, RU 10 s after start of dissociation at pH 7.4
[14] = molecular target: FcRn, FCGRT & B2M dimer receptor (Sino Biological Inc.); assay: SPR, 50 nM analyte, (RU at pH 7.4 / RU at pH 6.0) x 100

Sequence of FcRn, FCGRT & B2M dimer receptor (Sino Biological Inc.) (P55899 24-297, chain 1 of 2): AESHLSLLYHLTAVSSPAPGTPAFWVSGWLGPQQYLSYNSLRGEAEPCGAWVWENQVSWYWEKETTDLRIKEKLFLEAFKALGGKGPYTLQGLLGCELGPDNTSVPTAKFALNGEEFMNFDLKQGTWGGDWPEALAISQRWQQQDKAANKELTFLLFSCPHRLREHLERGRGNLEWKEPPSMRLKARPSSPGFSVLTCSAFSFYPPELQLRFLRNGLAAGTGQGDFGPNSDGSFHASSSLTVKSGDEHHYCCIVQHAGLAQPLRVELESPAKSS
Sequence of FcRn, FCGRT & B2M dimer receptor (Sino Biological Inc.) (P61769 21-119, chain 2 of 2, further chain): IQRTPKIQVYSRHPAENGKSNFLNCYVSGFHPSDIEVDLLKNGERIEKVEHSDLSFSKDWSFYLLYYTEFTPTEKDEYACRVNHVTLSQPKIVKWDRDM
Sequence of Human growth hormone-immunoglobulin Fc fragment conjugate (P01241 27-217): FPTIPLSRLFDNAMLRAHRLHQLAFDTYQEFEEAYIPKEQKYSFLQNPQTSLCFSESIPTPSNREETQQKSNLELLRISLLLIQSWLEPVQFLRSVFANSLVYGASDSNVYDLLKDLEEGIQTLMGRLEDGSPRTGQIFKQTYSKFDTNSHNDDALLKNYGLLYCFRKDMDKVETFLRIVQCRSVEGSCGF

Substance | Binding amount (RU) at pH 6.0 [1] [RU] | Binding amount (RU) at pH 7.4 [2] [RU] | Binding ratio (%) [3] [%] | Binding ratio (%) [4] [%] | Binding amount (RU) at pH 7.4 [5] [RU] | Average binding ratio (%) [6] [%] | Kd [7] [nM] | koff [7] [s⁻¹] | kon [7] [M⁻¹ s⁻¹] | Binding amount (RU) at pH 6.0 [8] [RU] | Binding amount (RU) at pH 7.4 [9] [RU] | Binding ratio (%) [10] [%] | Binding amount (RU) at pH 6.0 [11] [RU] | Binding amount (RU) at pH 6.0 [12] [RU] | Binding amount (RU) at pH 7.4 [13] [RU] | Binding ratio (%) [14] [%]
Human growth hormone-immunoglobulin Fc fragment conjugate (from UniProt P01241 27-217) | 82.9 | 8.2 | 4 | 7.4 | 8.1 | 6.6 | 26.8 | 0.0036 | 120000 | 153 | 7.7 | 9.8 | 112 | 206 | 8.3 | 5.1
Interferon-immunoglobulin Fc fragment conjugate (from UniProt P01563 24-188) | 91.3 | 6.4 | 3.2 | 5.6 | 6.4 | 5 | 30 | 0.0093 | 300000 | 157 | 6.7 | 7 | 120 | 197 | 6.7 | 4.3
